Test results as given in patent US20240101959A1, “USE OF IL-2R-BETA-GAMMA AGONIST PEPTIDES IN CELL MANUFACTURING” (MEDIKINE, INC., priority 2022, published 2024).
Read-outs that look alike come from different tables or passages of the source.

Assays:
[1] = target: T1, hu-IL-2Rγc subunit (human), P31785
T1 chain: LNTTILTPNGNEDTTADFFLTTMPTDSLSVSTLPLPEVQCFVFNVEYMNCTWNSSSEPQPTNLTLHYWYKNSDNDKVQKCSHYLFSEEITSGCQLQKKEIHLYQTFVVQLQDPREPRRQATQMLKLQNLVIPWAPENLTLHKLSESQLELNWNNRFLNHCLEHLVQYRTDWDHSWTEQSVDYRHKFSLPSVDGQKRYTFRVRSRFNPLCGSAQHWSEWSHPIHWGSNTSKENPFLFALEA

[2] = target: T1, hu-IL-2Rγc subunit (human), P31785; test: phage ELISA competition assay

TANQTVVECQVWGGVELCWQ (modifications not checked) [SEQ ID NO 644]
IC50 [1]: < 100 µM | IC50 [2]: < 10 µM

VECQEWGGVELCWC (modifications not checked) [SEQ ID NO 645]
IC50 [1]: < 100 µM | IC50 [2]: < 10 µM

IVCEEWRGVELCWL (modifications not checked) [SEQ ID NO 647]
IC50 [1]: < 100 µM | IC50 [2]: < 10 µM

DFERSYVVCQDWDGVELCWI (modifications not checked) [SEQ ID NO 648]
IC50 [1]: < 100 µM | IC50 [2]: < 10 µM

SAPERWVECEDWQGVELCWV (modifications not checked) [SEQ ID NO 650]
IC50 [1]: < 100 µM | IC50 [2]: < 10 µM

VVCQDWEGVELCWQ (modifications not checked) [SEQ ID NO 652]
IC50 [1]: < 100 µM | IC50 [2]: < 10 µM

DVVCQNWEGVDLCWH (modifications not checked) [SEQ ID NO 653]
IC50 [1]: < 100 µM | IC50 [2]: < 10 µM

SAGRQEVVCQDWNGVELCWI (modifications not checked) [SEQ ID NO 654]
IC50 [1]: < 100 µM | IC50 [2]: < 10 µM

GQGREVVVCHDWYGVELCWQ (modifications not checked) [SEQ ID NO 655]
IC50 [1]: < 100 µM | IC50 [2]: < 10 µM

DWRRSVVECQDWYGVELCWQ (modifications not checked) [SEQ ID NO 656]
IC50 [1]: < 100 µM | IC50 [2]: < 10 µM

DVVCQNWDGVDLCWH (modifications not checked) [SEQ ID NO 657]
IC50 [1]: < 100 µM | IC50 [2]: < 10 µM

TLGRTVVECQDWGGVELCWQ (modifications not checked) [SEQ ID NO 658]
IC50 [1]: < 100 µM | IC50 [2]: < 10 µM

IVCEDWRGVELCWI (modifications not checked) [SEQ ID NO 660]
IC50 [1]: < 100 µM | IC50 [2]: < 10 µM

GDRPKEVVCEDWKGVELCWI (modifications not checked) [SEQ ID NO 662]
IC50 [1]: < 100 µM | IC50 [2]: < 10 µM

ERPRSFIECQEWEGVELCWL (modifications not checked) [SEQ ID NO 663]
IC50 [1]: < 100 µM | IC50 [2]: < 10 µM

ANQNTVVECQDWHGVELCWQ (modifications not checked) [SEQ ID NO 665]
IC50 [1]: < 100 µM | IC50 [2]: < 10 µM

TWNMSELECQDWNGVEICWH (modifications not checked) [SEQ ID NO 668]
IC50 [1]: < 100 µM | IC50 [2]: < 10 µM

GNDDSYIVCEEWKGVELCWI (modifications not checked) [SEQ ID NO 669]
IC50 [1]: < 100 µM | IC50 [2]: < 10 µM

LNRSVWIECEEYEGVELCWL (modifications not checked) [SEQ ID NO 671]
IC50 [1]: < 100 µM | IC50 [2]: < 10 µM

KSQVECQDWEGVELCWVVSE (modifications not checked) [SEQ ID NO 676]
IC50 [1]: < 100 µM | IC50 [2]: < 10 µM

KITVECQDWDGVELCWPTWI (modifications not checked) [SEQ ID NO 677]
IC50 [1]: < 100 µM | IC50 [2]: < 10 µM

RPQIECQEWQGVELCWTREE (modifications not checked) [SEQ ID NO 678]
IC50 [1]: < 100 µM | IC50 [2]: < 10 µM

VSCQEWDGVELCWVDGDLAA (modifications not checked) [SEQ ID NO 679]
IC50 [1]: < 100 µM | IC50 [2]: < 10 µM

IMCQEWDGVELCWLERDKAN (modifications not checked) [SEQ ID NO 680]
IC50 [1]: < 100 µM | IC50 [2]: < 10 µM
